Test results from the RNAGym collection of RNA variant scans (doi:10.7554/elife.80360).

B1: HDV Ribozyme (parent)
chain: GGCCGGCAUGGUCCCAGCCUCCUCGCUGGCGCCGGCUGGGCAACAUUCCGAGGGGACCGUCCCCUCGGUAAUGGCGAAUGGGACCCA

Variants of: B1
Experiment: self-cleavage, relative activity (ratio to wild type); higher = more cleavage; co-transcriptional

| Variant | self-cleavage |
| --- | --- |
| C30G C63A | 0.229 |
| C32G G81U | 0.0639 |
| G31A G74U | 0.134 |
| G31C G54C | 0.193 |
| G31C G54A | 0.191 |
| C30A C58A | 0.623 |
| C30A C58U | 0.318 |
| C30U C64U | 0.806 |
| G31U C44G | 0.0665 |
| G31A C48G | 0.456 |
| G31A C48U | 0.393 |
| C32A G52U | 0.134 |
| G31A A77U | 0.0906 |
| C32G U46C | 0.0978 |
| G31U G38U | 0.0944 |
| G31C A70G | 0.285 |
| G31A G76C | 0.469 |
| G31A A70G | 0.4 |
| G31C C75G | 0.0396 |
| C30U A77U | 0.215 |
| C30U A77G | 0.489 |
| C30U C58A | 0.697 |
| C30U C58G | 0.569 |
| C32A U69C | 0.161 |

| Variant | self-cleavage |
| --- | --- |
| C32A G53A | 0.234 |
| C32G A56U | 0.0482 |
| G31U A43G | 0.0475 |
| C32G G52C | 0.208 |
| C30U G54U | 0.597 |
| C30G G38U | 0.114 |
| G31C A78C | 0.0997 |
| G31C C84G | 0.193 |
| C30U C61A | 0.718 |
| C30U C61G | 0.369 |
| G31C C49A | 0.415 |
| C30U C62A | 0.562 |
| C30A G59U | 0.637 |
| G31U G52C | 0.35 |
| C32A C85U | 0.231 |
| G31C U69A | 0.299 |
| C30A G40A | 0.462 |
| C32G U37C | 0.264 |
| C30U G52U | 0.709 |
| C30U G52C | 0.709 |
| C32G G38U | 0.089 |
| G29U U47G | 0 |
| G31C G82C | 0.134 |
| G31A G68A | 0.481 |

| Variant | self-cleavage |
| --- | --- |
| G31A G68U | 0.463 |
| C32G C64G | 0.0405 |
| C32A A56U | 0.369 |
| G31A A56C | 0.445 |
| C30U G67U | 0.75 |
| G31U U65C | 0.339 |
| G31U C64A | 0.364 |
| C30A C32G | 0.101 |
| C32G C44G | 0.0426 |
| C30A G53A | 0.389 |
| G31U G74C | 0.223 |
| C30G A42C | 0.151 |
| G31U A77C | 0.0489 |
| C30G U72G | 0.0923 |
| C30A A77C | 0.0852 |
| C30A C41U | 0.328 |
| C32A G35C | 0.0405 |
| C30U G38A | 0.0773 |
| C30G G82A | 0.0941 |
| G31C C44A | 0 |
| G31A G82U | 0.0715 |
| G31U G40A | 0.359 |
| G31U A42U | 0.104 |
| G31U A42C | 0.131 |

| Variant | self-cleavage |
| --- | --- |
| C30G A43C | 0.0489 |
| C30U C33A | 0.0268 |
| C32A U60C | 0.213 |
| C32A U60A | 0.252 |
| G31U G34A | 0.0804 |
| C30A U60A | 0.692 |
| G31U A56G | 0.386 |
| G31U U46A | 0.0755 |
| G31U U46G | 0.38 |
| G31U C75U | 0.0665 |
| G31U C75G | 0.148 |
| C30A A71U | 0.386 |
| G31U C57U | 0.383 |
| C30G G81C | 0.032 |
| C30G A70U | 0.0468 |
| G31C A56G | 0.166 |
| G31U U69A | 0.511 |
| C30U G50C | 0.677 |
| C30U G50U | 0.645 |
| C30U C85U | 0.787 |
| C30U G34A | 0.0875 |
| C32G C41A | 0.0354 |
| G31A C58A | 0.574 |
| G31A C58G | 0.393 |

| Variant | self-cleavage |
| --- | --- |
| G31C C48A | 0.449 |
| C32G G54U | 0.153 |
| C30U A70G | 0.8 |
| C30G U37C | 0 |
| C30A A51G | 0.361 |
| C30U G73U | 0.153 |
| C32G C36A | 0.125 |
| G31U C32A | 0.111 |
| C30A U72A | 0.123 |
| C30A U72C | 0.142 |
| C32A G74U | 0.117 |
| C32A U37C | 0.203 |
| G31A U72A | 0.0292 |
| G29U G73C | 0.185 |
| G29U G73U | 0.095 |
| C30A A87G | 0.614 |
| C30A A87U | 0.537 |
| C30A G50C | 0.577 |
| C32A C86G | 0.243 |
| C30U A87C | 0.755 |
| G31U C36U | 0.0702 |
| C32A C48U | 0.106 |
| G31C U65C | 0.361 |
| G31U G76U | 0.585 |

| Variant | self-cleavage |
| --- | --- |
| G31C G81C | 0.194 |
| C30G C86G | 0.0536 |
| C30A U47C | 0.314 |
| C30G G53C | 0.237 |
| C30G G53U | 0.103 |
| C32G A51G | 0.0665 |
| C32G A51C | 0.0489 |
| G31U C61U | 0.478 |
| G31U C61A | 0.38 |
| C30U A51U | 0.791 |
| G31A C32U | 0.315 |
| C30A C49A | 0.405 |
| C30G U65G | 0.0346 |
| C30G U65C | 0 |
| G31A U46A | 0.108 |
| G31A C61G | 0.401 |
| G31A C85G | 0.367 |
| G29U U72G | 0 |
| G31A G67U | 0.439 |
| C30G A83U | 0.16 |
| C30G A83G | 0 |
| G31U U72C | 0.163 |
| C30U C75G | 0.0554 |
| G31A G73U | 0.229 |

| Variant | self-cleavage |
| --- | --- |
| G31A G73C | 0.107 |
| G31A G73A | 0.234 |
| C32A C84A | 0 |
| C32A C64A | 0.166 |
| C32A C64G | 0.131 |
| C30A C86U | 0.68 |
| G31U C58A | 0.35 |
| C30G G80C | 0.0462 |
| C30G G54U | 0.148 |
| C30G G54C | 0.095 |
| G31C A83C | 0.185 |
| C32G G39C | 0.116 |
| C32G G39U | 0.0563 |
| C30U A71G | 0.633 |
| C32G C49G | 0.135 |
| G29U U60G | 0.175 |
| C30A G38U | 0.107 |
| C30G C84G | 0.0755 |
| C30G C84U | 0.0268 |
| C30U G81A | 0.155 |
| C30G U69G | 0 |
| C30A U37C | 0.199 |
| G31C G34C | 0.0396 |
